Data set [1] addresses T1, streptavidin (UniProt P22629 P22629:25-183). The data set can be described thus: footprint; S1 nuclease protection; 50 mM NaCl, 20 mM MgCl2, Tris pH 7.5; ratio to control varies with streptavidin concentration. The conditions noted are these: tags: Roche (free); Dynabeads streptavidin (Invitrogen) for bead selections; chain copies: 4. How it is done:
(§1) Subsequently, 1 μl of S1 nuclease (22.5 units/μl) (Takara, Japan) was added to each tube followed by 20-minutes reaction at 37° C., and then the reaction was stopped by heating at 98° C. for 3 minutes.
(§2) PCR was performed, using a thermal circular (Biometra), after keeping the temperature at 96° C. for 1 minute, for 1 cycle of 95° C. for 15 seconds, 46° C. for 20 seconds, and 72° C. for 60 seconds, then 40 cycles each consisting of 95° C. for 15 seconds and 72° C. for 60 seconds. As a PCR reagent, KOD-Neo-plus (Toyobo Co., Ltd., Japan) was used.
(§3) After PCR, products were digested with the Msp I restriction enzyme. […] Samples after digestion were subjected to gel electrophoresis, so that the ratio of the amount of the streptavidin aptamer to the amount of the control aptamer could be determined.

Data set [2] addresses T1, streptavidin. Nature of the data set: footprint; stated non-binding control in S1 nuclease protection assay. The following applies: tags: Roche (free); Dynabeads streptavidin (Invitrogen) for bead selections; chain copies: 4. How it is done:
as §1, §2, §3

Changes are numbered by the printed parent chain.

T1 sequence (P22629 25-183, one chain of several): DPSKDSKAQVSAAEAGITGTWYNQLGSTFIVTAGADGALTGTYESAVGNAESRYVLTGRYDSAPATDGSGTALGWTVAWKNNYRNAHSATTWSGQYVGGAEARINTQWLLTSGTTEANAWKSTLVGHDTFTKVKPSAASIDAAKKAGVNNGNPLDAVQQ

B1: streptavidin aptamer (ssDNA)
DNA: TCTGTGAGACGACGCACCGGTCGCAGGTTTTGTCTCACAG
For the molecule B1, in the data set with streptavidin [1], the binding result is on record as “binds”.

B2: control aptamer (ssDNA)
DNA: B1 DNA with G20A, T21C
B2: the binding result in the data set with streptavidin [2] is given as “no binding”.

Source of the values: patent US20130116129, “METHOD FOR DETECTING TARGET MOLECULES” (NATIONAL INSTITUTE OF ADVANCED INDUSTRIAL SCIENCE AND …, published 2013).
